Results on 64 variants are retold here after the RNAGym collection of RNA variant scans (doi:10.7554/elife.80360).

The labels stand for the following.
B1: HDV Ribozyme (parent)
chain: GGCCGGCAUGGUCCCAGCCUCCUCGCUGGCGCCGGCUGGGCAACAUUCCGAGGGGACCGUCCCCUCGGUAAUGGCGAAUGGGACCCA

In this series the parent is B1. Description: self-cleavage, relative activity (ratio to wild type); higher = more cleavage; co-transcriptional.
In the case of GGCAGGCAUGGUCCCAGCCUCCUCGCUGGCGCCGGCUGGGCAGCAUUCCGAGGGGACCGUCCCCUCGGUAAUGGCGAAUGGGACCCA, the self-cleavage stood at 0.158.

Regarding GUCCGGCAAGGUCCCAGCCUCCUCGCUGGCGCCGGCUGGGCAACAUUCCGAGGGGACCGUCCCCUCGGUAAUGGCGAAUGGGACCCA, the self-cleavage was 0.0237.

Consider GGCCGGCAUGGACCCAGCCUCCUCGCUGCCGCCGGCUGGGCAACAUUCCGAGGGGACCGUCCCCUCGGUAAUGGCGAAUGGGACCCA, for which the self-cleavage was 0.0386.

In the case of GGCCGGCAUAGUCCCAGCCUCCUCGCUGGCGCCGGCUGGGCAACAUUCCGAGGGGACCGUCCCCUCGGUAAUGCCGAAUGGGACCCA, the self-cleavage was 0.105.

With GGCCGGCAUGGUCCCUGCCUCCUCGCUGGCGCCGCCUGGGCAACAUUCCGAGGGGACCGUCCCCUCGGUAAUGGCGAAUGGGACCCA, the self-cleavage was 0.128.

Take GGCCGGCAUGGUCCCAGCCUCCUCGCUGGCGCCGGCUGGGCAAAAUUCCGAGGGGACCGUCCCCUCGGUAAUGGCGAAUGGGGCCCA: the self-cleavage stood at 0.443.

Take GGCCGGCAUGGUCCCAGCCUCCUCGAGGGCGCCGGCUGGGCAACAUUCCGAGGGGACCGUCCCCUCGGUAAUGGCGAAUGGGACCCA: the self-cleavage turned out to be 0.733.

As to GGCCGGCAUGGUCCCAGCCUCCUCGCUGGCGCCGGCUGGGCAUCAUUCCGAGGGGACCGUCCCCUUGGUAAUGGCGAAUGGGACCCA, the self-cleavage turned out to be 0.575.

As for GGCCGGAAUGGUGCCAGCCUCCUCGCUGGCGCCGGCUGGGCAACAUUCCGAGGGGACCGUCCCCUCGGUAAUGGCGAAUGGGACCCA, the self-cleavage stood at 0.

Consider GGCCGGCAUGGUCCUAGCCUCCUCGCUGGCGCCGGCUGGGCAACAUUCCGAGGGGACCGUCCCCUCGGUAAUGGCGACUGGGACCCA, for which the self-cleavage was determined as 0.166.

In the case of GGCCGGCAUGGUCCCAGCCUCCUCGCUGGCGCCGGCUGGGCAACAUUCCGAGGGGACCGUCCCCUCGCUAGUGGCGAAUGGGACCCA, the self-cleavage was found to be 0.831.

On to GGCCGGCAUGGUCCCAGCCUCCUCGCUGGCGCCGGCUGGGCAACAUUCCGCGGGGACCGUCCCCUCGGUAAUGGCCAAUGGGACCCA, for which the self-cleavage came out at 0.982.

As to GGCCGGCAUGGUCCCAGCCUCCUCGCUGGCGCCGGCUGGGCAACAUUCCGAGGGAACCGUCCCCUCGGUAAUGGUGAAUGGGACCCA, the self-cleavage was found to be 0.208.

For the variant GGCCGGCAUGGUCCCAGCCUCCUCGCUGGCGCCGGCUGGGCAACAUUCCGAGGGAACCGUCCCCUCGGUAAUGGGGAAUGGGACCCA, the self-cleavage is 0.136.

For the variant GGCCGGCAUGGUCCCAGCCUCCUCGCUGGCGCCGGCAGGGCAACAUUCCGAGGGGACCGUCCCCUCGGUAAUGGCCAAUGGGACCCA, the self-cleavage stood at 0.203.

Take GGCCGGCAUGGUCCCAGCCUCCUCGCUGGCGCCGGGUGGGCAACACUCCGAGGGGACCGUCCCCUCGGUAAUGGCGAAUGGGACCCA: the self-cleavage was 0.

In the case of GGCCGGCAUGGUCCCAGCCUCCUCGAUGGCGCCGGCUGGGCAACAUUCCGAGGGGACCGUCCCCUCUGUAAUGGCGAAUGGGACCCA, the self-cleavage stood at 1.04.

On to GGCCGGCAUGGUCCCAUCCUCCUCGCUGGCGCCGGCUGGGCAACAUUCCGAGGGGGCCGUCCCCUCGGUAAUGGCGAAUGGGACCCA, for which the self-cleavage was determined as 0.609.

For the variant GGCCGGCAUGGUCCCAGCCUCCUCGCUGGCGCAGGCUGGGCAACAUUCCGAGGGGACCGUCCCCUCGGUAACGGCGAAUGGGACCCA, the self-cleavage worked out at 0.151.

Consider GGCCGGCAUGGUCCCAGCCUCCUCGCUGGCGCCGGCUGGGCAACAUUCCGAGGGGACCGUCCCCUUGGUAAUGGCGAAUUGGACCCA, for which the self-cleavage was found to be 0.295.

Turning to UGCCGGUAUGGUCCCAGCCUCCUCGCUGGCGCCGGCUGGGCAACAUUCCGAGGGGACCGUCCCCUCGGUAAUGGCGAAUGGGACCCA, the self-cleavage amounted to 0.269.

Consider GGCCGGGAUGGUCCCAGCCUCCUCGCUGGCGCCGGCUGGGCAACAUUGCGAGGGGACCGUCCCCUCGGUAAUGGCGAAUGGGACCCA, for which the self-cleavage amounted to 0.

For GGCCGGCAUGGUCCCAGCCUCCUCGCUGGCGCCGGCUGGGCAACAUUCCGAGGGGACCGUCCCCUCGUUAAUGCCGAAUGGGACCCA, the self-cleavage was 0.222.

Regarding GGCCGGCAUGGUCCCAGCGUCCUCGCUGGCGCCGGCGGGGCAACAUUCCGAGGGGACCGUCCCCUCGGUAAUGGCGAAUGGGACCCA, the self-cleavage came to 0.111.

On to GGCCGGCUUCGUCCCAGCCUCCUCGCUGGCGCCGGCUGGGCAACAUUCCGAGGGGACCGUCCCCUCGGUAAUGGCGAAUGGGACCCA, for which the self-cleavage was 0.639.

As for GGCCGGCAUGGUCCCAGGCUCCUCGCUGGCGCCGGCUGGGCAACAUUCCGAGGGGACCGUCCCCUUGGUAAUGGCGAAUGGGACCCA, the self-cleavage came out at 0.166.

As to GGCCGGCAUGGUCCCAGCCUCCUCGCUGGCGCCGGCUGGUCAACAUUCCGAGGGGACCGUCCCCUCGGUAAUGCCGAAUGGGACCCA, the self-cleavage is 0.111.

For the variant GGCCGGCAUGGUCCCAGACUCCUCGCUGGCGCCGGCUGGGCAACAUUCCGAGGGGACCGUCCCCUCGGUAAUGGCGCAUGGGACCCA, the self-cleavage amounted to 0.

With GGCCGGCAUGGUCCCAGCCUACUCGCUGGCGCCGGCUGGACAACAUUCCGAGGGGACCGUCCCCUCGGUAAUGGCGAAUGGGACCCA, the self-cleavage was 0.0647.

Turning to GGCCGGCAUGGUCCCAGCCUCCUCGCUGGCGCCGUCUGGGCAACAUUCCGAGGGGACCGUCCCCUCGGUAAUGGCUAAUGGGACCCA, the self-cleavage turned out to be 0.595.

As to GGCCGGCAUGGUCCCAGCCUCCUCGCUGGCGCCGGCUGGGCAACAUUCCAAGGGGACCGUCCCCUCGGUAGUGGCGAAUGGGACCCA, the self-cleavage is 0.991.

For GGCCGGCUUGGUCCCAGCCUCCUCGCUGGCGCCGGCUGGGCAACAUUCCGAGGGGACCGUCCCCUCGGUAAUGGCGAAUGUGACCCA, the self-cleavage was found to be 0.175.

In the case of GGCCGGCAUGGUCCCAGCCUCCUCGCUUGCGCCGGCUGGGCAACAUUCCGAGGGGACCGUCCCCUCGGUAAUGGCGAAUGGGACACA, the self-cleavage is 0.203.

With GGCCGGCAUGGUCCCAGCCUCCUCGCUGGCGCCGGCUGGGCAACAUUCCGAGGGGUCCGUCCCCUCGGUAAUGGUGAAUGGGACCCA, the self-cleavage came out at 0.237.

On to GGCCGGCAUGGUCCCAGCCUCCUCGCUGGCGCCGGCUGGGCAACAUUCCGAGGGGACCGUCCCCUCGGUAAUGGAGACUGGGACCCA, for which the self-cleavage was 0.104.

For the variant GGCCGGCAUGGUCCCAGCCUCCUCGCUGGCGCCGGCUGGGCAACAGUCCGAUGGGACCGUCCCCUCGGUAAUGGCGAAUGGGACCCA, the self-cleavage was found to be 0.237.

For GGCCGGCAUGGUCCCAGCCUCCUCACUGGCGCCGGCUGGGCAACAUUCCAAGGGGACCGUCCCCUCGGUAAUGGCGAAUGGGACCCA, the self-cleavage amounted to 0.406.

As to GGCCGGCAUGGUCCCAGCCUCCUCGCUGGCGCCGGCUGGGCAACAUCCCGAGGGGACCGUCCCCUCGGCAAUGGCGAAUGGGACCCA, the self-cleavage worked out at 1.08.

In the case of GGGCGGCAUGGUCCCAGCCUCCUCGCUGGCGCCGGCUGGGCAACAUUCCGCGGGGACCGUCCCCUCGGUAAUGGCGAAUGGGACCCA, the self-cleavage was 0.779.

Consider GGCCGGCAUGGUCCCAGCCUCCUCGCUGGCGCCGGCUGGGCAACAUUCCGAGGGGACCGUCCCCUCGGUAAUGGCGAGAGGGACCCA, for which the self-cleavage came out at 0.317.

Take GGCCGGGAUGGUCCCAGCCUCCUCGCUGGCGCCGGCUGGGCAACACUCCGAGGGGACCGUCCCCUCGGUAAUGGCGAAUGGGACCCA: the self-cleavage worked out at 0.

For GGCCGGCAUGGUCCCGGCCUCCUCGCUGGCGCCGGCUGGGCAACAUUCCGAGGGGACCGUCCCCUCAGUAAUGGCGAAUGGGACCCA, the self-cleavage is 0.886.

On to GGCCGGCAUGGUCCCAGCCUCCUCGCUGGCGCCGGCUGGGAAACAUUCCGAGGGGACCGUCCCCUCGGUGAUGGCGAAUGGGACCCA, for which the self-cleavage turned out to be 0.916.

On to GGCCGGCAUGGUCCCAGACUCCUCGCUGGCGCCGGGUGGGCAACAUUCCGAGGGGACCGUCCCCUCGGUAAUGGCGAAUGGGACCCA, for which the self-cleavage worked out at 0.

As to GGCCGGCAUGGUCCCAGCCUCCUCGCUGGCGCCGGCUGGACAACAUUCCGAGGGGACCGUCCCCUCGGUAAUUGCGAAUGGGACCCA, the self-cleavage was 0.554.

For the variant GGCCGGCAUGGUCCCAGCCUCCUCACUGGCGCCGGCUGGGCAACAUUCCGAGGGGACCGUCCCCUCGGUAAUGGCGCAUGGGACCCA, the self-cleavage was determined as 0.0978.

In the case of GGCCGGCAUGGUCCCAGCCUCCUCGCUGGCGCCGGCUGGGCAACAUUCCGAGGGGACCGUCCGCUCGGAAAUGGCGAAUGGGACCCA, the self-cleavage is 1.16.

With GGCCGGCAUGGUCCCAGCCCCCUCGCUGGCGCCGGCUGGGCAACAUUCCGAGGGGACCGUCACCUCGGUAAUGGCGAAUGGGACCCA, the self-cleavage came out at 0.

For GUCCGGCCUGGUCCCAGCCUCCUCGCUGGCGCCGGCUGGGCAACAUUCCGAGGGGACCGUCCCCUCGGUAAUGGCGAAUGGGACCCA, the self-cleavage came to 0.

Consider UGCCGGCAUGGUCCCAGACUCCUCGCUGGCGCCGGCUGGGCAACAUUCCGAGGGGACCGUCCCCUCGGUAAUGGCGAAUGGGACCCA, for which the self-cleavage is 0.304.

With GGCCGGCAUGGUCCCAGCCUCCUCGCUGGCGCCGGCUGGGCAAGAUUCCGAGGGGACCGUACCCUCGGUAAUGGCGAAUGGGACCCA, the self-cleavage is 0.724.

As for GGCCGGCAUGGUCCCAGCCUCCUCGCUGGCGCCGGCUGGGCAACAUUGCGAGGGGACCGUCCCCUCGGUUAUGGCGAAUGGGACCCA, the self-cleavage turned out to be 0.506.

GGCCGGCAUGGCCCCAGCCUCCUCGCUGGCGCCGGCUGGGCAACAUUCCGAGGGGACCGUCCCCUCGGUAAUGGCGAAUCGGACCCA: the self-cleavage worked out at 0.104.

With GGCCGGCGUGGUCCCAGCCUCCUCGCUGGCGCCGGCAGGGCAACAUUCCGAGGGGACCGUCCCCUCGGUAAUGGCGAAUGGGACCCA, the self-cleavage was 0.147.

Take GGCCGGCAUGGUCCCAGCCUCCUCGCUGGCGCCGGCUGGGCAACCUUCCGAGGGGACCGUCCUCUCGGUAAUGGCGAAUGGGACCCA: the self-cleavage stood at 0.727.

GGCCGGAAUGGUCCCAGCCUCCUCGCUGGCGCCGGCUGGGCAACAUUCCGAGGGGACCGUCCCCUCGGUAAUGGCGAAUGGGGCCCA: the self-cleavage was 0.141.

In the case of GGCCGGCCUGGACCCAGCCUCCUCGCUGGCGCCGGCUGGGCAACAUUCCGAGGGGACCGUCCCCUCGGUAAUGGCGAAUGGGACCCA, the self-cleavage was 0.

As for GGCCGGCAUGGUCCCAGCCUCCUCGCUGGCGCAGGCUGGGCAACAUUCCGAGGGGACCGUCCCCUCGGUAAUGGCGAAUGCGACCCA, the self-cleavage is 0.222.

In the case of GGCCGGCAUGGUCCCAGCCUCCUCGAUGGCGCCGGCUGGGCAACAUGCCGAGGGGACCGUCCCCUCGGUAAUGGCGAAUGGGACCCA, the self-cleavage worked out at 0.923.

For the variant GGCCGGCAUGGUCCUAGCCUCCUCGCUGGCGCCGGCUGGGCAACAUUCCGAGGGCACCGUCCCCUCGGUAAUGGCGAAUGGGACCCA, the self-cleavage is 0.895.

In the case of GGCGGGCAUGGUCCCAGCCUCCUCGCUGGCGCCGGCUGGGCAACAUUCCGAGGGGACCGUCCCCUCGGUAAUGACGAAUGGGACCCA, the self-cleavage was 0.0639.

Consider GGCCGGCAUGGUACCAGCCUCCUCGCUGGCGCGGGCUGGGCAACAUUCCGAGGGGACCGUCCCCUCGGUAAUGGCGAAUGGGACCCA, for which the self-cleavage came out at 0.175.

With GGUCGGCAUGGUCCCUGCCUCCUCGCUGGCGCCGGCUGGGCAACAUUCCGAGGGGACCGUCCCCUCGGUAAUGGCGAAUGGGACCCA, the self-cleavage worked out at 0.831.

For GGCCGGCAUGGUCUCAGCCUCCUCGCUGGCGCCGGCUGGGCAACAUUCCGAGGGGACCGUCCCCUCGGUAAUGGCGAAUAGGACCCA, the self-cleavage amounted to 0.486.
